Data as given in PMC3876286 (ACS chemical biology, 2013).

System: r(CUG)12
Assay: SPR binding to r

B1: muscleblind-like 1 protein (protein, UniProt Q9NR56 1-388, looked up)
Muscleblind-like protein 1: MAVSVTPIRDTKWLTLEVCREFQRGTCSRPDTECKFAHPSKSCQVENGRVIACFDSLKGRCSRENCKYLHPPPHLKTQLEINGRNNLIQQKNMAMLAQQMQLANAMMPGAPLQPVPMFSVAPSLATNASAAAFNPYLGPVSPSLVPAEILPTAPMLVTGNPGVPVPAAAAAAAQKLMRTDRLEVCREYQRGNCNRGENDCRFAHPADSTMIDTNDNTVTVCMDYIKGRCSREKCKYFHPPAHLQAKIKAAQYQVNQAAAAQAAATAAAMTQSAVKSLKRPLEATFDLGIPQAVLPPLPKRPALEKTNGATAVFNTGIFQYQQALANMQLQQHTAFLPPVPMVHGATPATVSAATTSATSVPFAATATANQIPIISAEHLTSHKYVTQM
koff (1): 0.00203 s⁻¹
kon (1): 3280 M⁻¹ s⁻¹
Kd (read-out: Kobs (1)): 0.619 µM
